Laboratory results taken from the RNAGym collection of RNA variant scans (doi:10.1073/pnas.2313332121).

B1: TPR t1 (parent)
chain: GACCAAUCUGCCCUCAGAGCUCGAGAACAUCUUCGGAUGCAGAGGAGGCAGGCUUCGGUGGCGCGAUAGCGCCAACGUCCUCAACCUCCAAUGCAUCCCACCACAUGAUGAUGCCUGAAGAGCCUUGGUUUUUUG

Variants of: B1
Test: polymerase ribozyme fitness, log enrichment relative to wild type (log ratio); higher = more active; in vitro selection for triplet polymerase activity
In short: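 Fitness is a logarithmic measure of how a genotype enriched relative to the wild type, with replicate averages weighted by inverse variance. The logarithm uses base 2, and enrichment came from Illumina sequencing of input and output libraries. Those libraries were PCR-built, transcribed mutants of each subunit of a heterodimeric triplet polymerase ribozyme, passed through one triplicate in vitro selection round that included frozen incubation at −7 °C, gel excision of extended constructs and streptavidin-bead capture. Genotypes were kept only if they had ≥10 input reads and ≥1 read per output.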

Going from C3A C40G G48C G77C C124U U133A to G57C G61C C88G G113U U116C A121U, the “polymerase ribozyme fitness (log ratio)” value falls from -4.13 to -6.29.

First: C11A C49U C102A
Second: C4G C73U U92C
The “polymerase ribozyme fitness (log ratio)” value of the first is lower: -3.16 for the first, -2.66 for the second.

Compared with A27G C28U G47U G58C, G39C C40U G69A is lower in “polymerase ribozyme fitness (log ratio)” value: -3.68 for the first, -4.36 for the second.

Going from C34A A43U G61A C88U A119G A121C to C13A G44C, the “polymerase ribozyme fitness (log ratio)” value rises from -4.91 to -1.83.

First: A37U U54C G60U C123U
Second: G58C C97A A103U G120C
The “polymerase ribozyme fitness (log ratio)” value of the first is higher: 1.13 for the first, -6.84 for the second.

Compared with G10C G57C, G36U U54A C72A is lower in “polymerase ribozyme fitness (log ratio)” value: -0.669 for the first, -0.869 for the second.

Going from C8U C15U G45C A50U to C49A G113C, the “polymerase ribozyme fitness (log ratio)” value falls from -1.64 to -2.05.

First: C3U A27G
Second: G45C A118G A121U
The “polymerase ribozyme fitness (log ratio)” value of the first is lower: -2.38 for the first, -1.69 for the second.

Compared with C56G C72A G110U A111G, C8G G35U is lower in “polymerase ribozyme fitness (log ratio)” value: -2.87 for the first, -3.78 for the second.

First: C8A C13G A46U
Second: C79A C102U
The “polymerase ribozyme fitness (log ratio)” value of the first is higher: -1.07 for the first, -4.37 for the second.

Compared with C12U C40A C99U, A46G C49A C56A A66C is higher in “polymerase ribozyme fitness (log ratio)” value: -4.01 for the first, -2.64 for the second.

Compared with A29U U54A G71C, G39C U112A A121U is higher in “polymerase ribozyme fitness (log ratio)” value: -1.61 for the first, 1.84 for the second.

First: A41G G69C G117U
Second: G69C A84G A118U G127A
The “polymerase ribozyme fitness (log ratio)” value of the first is lower: -4.65 for the first, -2.68 for the second.

Compared with C56A A111C, C70U C82G G117U is lower in “polymerase ribozyme fitness (log ratio)” value: -0.279 for the first, -3.92 for the second.

Compared with C104U U109G, C13U G42U A90U A95U is higher in “polymerase ribozyme fitness (log ratio)” value: -3.57 for the first, -1.89 for the second.

First: G117A U131G
Second: C40U G47A G48C G93A G122A
The “polymerase ribozyme fitness (log ratio)” value of the first is lower: -1.55 for the first, -1.34 for the second.

Compared with A50C C72U G93U U112G, G47U C123U is higher in “polymerase ribozyme fitness (log ratio)” value: -2.29 for the first, -0.404 for the second.

Going from C12U C13G to G36U G42U C99A C114A, the “polymerase ribozyme fitness (log ratio)” value falls from -0.258 to -7.29.

First: A5U C64G C124U
Second: G61U C101U A119G C124G
The “polymerase ribozyme fitness (log ratio)” value of the first is lower: -6.6 for the first, 1.72 for the second.

First: C12A G51A C62U U96A
Second: C4A U87G
The “polymerase ribozyme fitness (log ratio)” value of the first is lower: -5.39 for the first, -1.28 for the second.

Compared with A29U U109C C124A, C12U A41U C72G is higher in “polymerase ribozyme fitness (log ratio)” value: -3.97 for the first, -1.1 for the second.

Compared with C8G C11A C72U C88U C97U G113U G127C, G77A U92G C94A C99G A111C is lower in “polymerase ribozyme fitness (log ratio)” value: -4.01 for the first, -8.36 for the second.

Going from A83C G113C to C49U G71A G117C, the “polymerase ribozyme fitness (log ratio)” value falls from -2.78 to -6.24.

First: A37U G45U G61C
Second: G48C G60C
The “polymerase ribozyme fitness (log ratio)” value of the first is lower: -2.86 for the first, -1.63 for the second.

Going from G44C to C12A C124G G127U, the “polymerase ribozyme fitness (log ratio)” value rises from -0.805 to 1.3.

First: G36A G52C
Second: G44U U87C U106C
The “polymerase ribozyme fitness (log ratio)” value of the first is lower: -2.17 for the first, -1.29 for the second.

Compared with A2U C4A C13U C123A, G10A G45A is lower in “polymerase ribozyme fitness (log ratio)” value: 1.02 for the first, -1.2 for the second.

Compared with G45C A75G U96A G113C, G63U C98U is higher in “polymerase ribozyme fitness (log ratio)” value: -2.91 for the first, -2.09 for the second.

First: A5U U9G G48A U78A
Second: U32C A75G C124A
The “polymerase ribozyme fitness (log ratio)” value of the first is lower: -0.963 for the first, 1.81 for the second.

Compared with A26C A46C C115G, G19C G60A G93A is higher in “polymerase ribozyme fitness (log ratio)” value: -6.72 for the first, -2.11 for the second.

Going from C8A C49A C86U G93U C94U C123A to A2G G69A, the “polymerase ribozyme fitness (log ratio)” value falls from -0.367 to -2.65.

G44U G57A C94G and A2U A100U U116C are within 0.2 log units of each other in “polymerase ribozyme fitness (log ratio)” value: -3.86 for the first, -3.73 for the second.

Going from G17U C114G U132A to C20U A29G G61U C115A U116C G117U G135C, the “polymerase ribozyme fitness (log ratio)” value rises from -5.35 to -1.97.

Compared with C12G A43U C70G C124G, C34U G42C is lower in “polymerase ribozyme fitness (log ratio)” value: -4.85 for the first, -6.44 for the second.

Compared with G10U C89A G117U, A5G A6C is higher in “polymerase ribozyme fitness (log ratio)” value: -4.64 for the first, -0.0257 for the second.

Going from G10U C13G C72U to U81C C85A C89A, the “polymerase ribozyme fitness (log ratio)” value falls from -0.677 to -4.24.

Compared with C15U C28U C72G U96C, A46G C76U C94G G120C is higher in “polymerase ribozyme fitness (log ratio)” value: -3.94 for the first, -1.42 for the second.

First: G10U U38G C70A C73U C123A U130G
Second: C3U C53U C73U C88U
The “polymerase ribozyme fitness (log ratio)” value of the first is lower: -3.12 for the first, -0.301 for the second.

Compared with A41G G45A A83C, A29C C64A U109G G113A is lower in “polymerase ribozyme fitness (log ratio)” value: -1.53 for the first, -6.15 for the second.

First: G63C A111C A121C
Second: C3U A105U
The “polymerase ribozyme fitness (log ratio)” value of the first is higher: -0.162 for the first, -1.94 for the second.

Going from U21C C56A G69U C70U U96A A119G to C13G A46C U78C C86A, the “polymerase ribozyme fitness (log ratio)” value falls from -2.46 to -4.39.

U7G G117C and A18U A83C C94G C115G C123G U134G are within 0.2 log units of each other in “polymerase ribozyme fitness (log ratio)” value: -1.81 for the first, -1.77 for the second.
